Measured values as given in PMC6525239, “Hexameric NuMA:LGN structures promote multivalent interactions required for planar epithelial divisions” (Nature Communications, 2019).

Columns and labels:
[1] = target: αβ-tubulin hetero-dimers (UniProt P02554 1-445); test: SEC; Superdex-200 Increase 3.2/300; 26 µM NuMA^2002–2115 and 20 µM αβ-tubulin hetero-dimers; GT buffer (80 mM PIPES pH 6.8, 1 mM MgCl2, 1 mM EGTA) with 60 mM NaCl and 1 mM DTT; Tris-Tricine-SDS-PAGE; conditions: both partners purified
[2] = target: the molecule itself; test: SEC-MALS; static light scattering (SLS) on a Viscotek GPCmax/TDA with two TSKgel G3000PWxl columns in series; 75 μl of purified sample at about 1.5–2 mg/ml
[3] = target: LGN^TPR-ΔOLIGO (LGN^13–350) (human); test: as above
[4] = target: T1, LGN^13–409 (human); test: SEC + SEC-MALS; SEC and SLS assays on a battery of truncated LGN and NuMA mutants (Fig. 1c, d)
T1 sequence (P81274 whole entry, looked up): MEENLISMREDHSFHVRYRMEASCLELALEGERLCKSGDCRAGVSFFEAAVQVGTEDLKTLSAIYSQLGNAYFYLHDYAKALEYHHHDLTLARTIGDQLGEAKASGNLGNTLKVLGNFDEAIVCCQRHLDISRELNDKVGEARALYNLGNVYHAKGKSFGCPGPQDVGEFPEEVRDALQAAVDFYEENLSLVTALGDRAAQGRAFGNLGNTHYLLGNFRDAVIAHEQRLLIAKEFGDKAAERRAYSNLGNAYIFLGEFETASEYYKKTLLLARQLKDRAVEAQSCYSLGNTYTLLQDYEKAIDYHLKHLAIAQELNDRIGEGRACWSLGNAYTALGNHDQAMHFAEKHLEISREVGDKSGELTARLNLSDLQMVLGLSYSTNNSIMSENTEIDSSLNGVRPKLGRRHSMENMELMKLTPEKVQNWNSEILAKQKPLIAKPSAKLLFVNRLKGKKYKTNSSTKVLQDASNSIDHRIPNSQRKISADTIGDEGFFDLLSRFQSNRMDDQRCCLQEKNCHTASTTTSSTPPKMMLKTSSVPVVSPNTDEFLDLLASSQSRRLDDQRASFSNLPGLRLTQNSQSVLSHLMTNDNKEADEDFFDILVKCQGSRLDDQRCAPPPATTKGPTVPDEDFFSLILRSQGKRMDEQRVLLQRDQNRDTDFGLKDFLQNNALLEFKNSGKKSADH

[5] = target: T2, LGN^1–350 (human); test: as above
T2 sequence (P81274 whole entry, looked up): T1 sequence (P81274 whole entry, looked up)

[6] = target: T3, LGN^7–367 (human); test: SEC-MALS; static light scattering (SLS) on a Viscotek GPCmax/TDA with two TSKgel G3000PWxl columns in series; 75 μl of purified sample at about 1.5–2 mg/ml
T3 sequence (P81274 whole entry, looked up): T1 sequence (P81274 whole entry, looked up)

[7] = target: T4, LGN^1–409 (TPR domain of LGN) (human); test: SEC; analytical SEC, Superdex-200 Increase 3.2/300; LGN and NuMA variants mixed in equimolar amounts (20 μM; LGN^TPR:NuMA^PEPT 1:2); 20 mM Tris-HCl pH 8.0, 0.150 M NaCl, 5% glycerol, 1 mM DTT; fractions checked by SDS-PAGE
T4 sequence (P81274 whole entry, looked up): T1 sequence (P81274 whole entry, looked up)

Sequence of αβ-tubulin hetero-dimers (P68363 whole entry, chain 1 of 2): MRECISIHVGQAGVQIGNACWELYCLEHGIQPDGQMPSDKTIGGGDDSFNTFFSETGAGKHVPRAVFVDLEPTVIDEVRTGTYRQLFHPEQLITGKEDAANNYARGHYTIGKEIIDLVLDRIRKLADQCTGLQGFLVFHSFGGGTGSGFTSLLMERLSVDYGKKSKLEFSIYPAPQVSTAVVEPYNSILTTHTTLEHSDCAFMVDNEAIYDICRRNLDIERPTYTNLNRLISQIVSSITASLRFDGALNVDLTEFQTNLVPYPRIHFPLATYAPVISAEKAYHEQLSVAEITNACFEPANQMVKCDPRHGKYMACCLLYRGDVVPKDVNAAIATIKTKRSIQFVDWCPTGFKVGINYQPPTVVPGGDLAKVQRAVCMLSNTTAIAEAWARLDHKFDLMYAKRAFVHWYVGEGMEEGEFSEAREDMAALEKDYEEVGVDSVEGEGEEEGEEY
Sequence of αβ-tubulin hetero-dimers (P02554 whole entry, chain 2 of 2): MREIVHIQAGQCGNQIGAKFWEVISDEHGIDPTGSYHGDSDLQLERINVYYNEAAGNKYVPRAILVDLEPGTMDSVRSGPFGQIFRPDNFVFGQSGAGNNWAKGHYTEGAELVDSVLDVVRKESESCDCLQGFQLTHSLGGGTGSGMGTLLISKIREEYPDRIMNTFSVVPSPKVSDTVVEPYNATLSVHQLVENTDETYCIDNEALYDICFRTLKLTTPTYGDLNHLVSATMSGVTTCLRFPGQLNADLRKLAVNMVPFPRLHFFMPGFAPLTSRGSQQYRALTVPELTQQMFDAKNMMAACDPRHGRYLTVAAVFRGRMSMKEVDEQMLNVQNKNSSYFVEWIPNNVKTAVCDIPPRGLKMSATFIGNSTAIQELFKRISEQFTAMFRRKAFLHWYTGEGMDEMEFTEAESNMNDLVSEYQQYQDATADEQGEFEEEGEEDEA

B1: NuMA^2002–2115 (domain or fragment, human, UniProt Q14980 2002-2115, looked up)
chain: ESKKATSCFPRPMTPRDRHEGRKQSTTEAQKKAAPASTKQADRRQSMAFSILNTPKKLGNSLLRRGASKKALSKASPNTRSGTRRSPRIATTTASAATAAAIGATPRAKGKAKH
Q: B1 was tested. Which “stoichiometry N” value [1] did it give?
A: Its value is 1.

B2: NuMA chimera (NuMA 1592–1694 joined to NuMA 1821–2001 by eight Thr-Gly-Ser repeats) (domain or fragment, human)
chain: QLNELQAQLSQKEQAAEHYKLQMEKAKTHYDAKKQQNQELQEQLRSLEQLQKENKELRAEAERLGHELQQAGLKTKEAEQTCRHLTAQVRSLEAQVAHADQQLTGSTGSTGSTGSTGSTGSTGSTGSKKLDVEEPDSANSSFYSTRSAPASQASLRATSSTQSLARLGSPDYGNSALLSLPGYRPTTRSSARRSQAGVSSGAPPGRNSFYMGTCQDEPEQLDDWNRIAELQQRNRVCPPHLKTCYPLESRPSLSLGTITDEEMKTGDPQETLRRASMQPIQIAEGTGITTRQQRKRVSLEPHQGPGTP
notes: NuMA, human, residues 1592-1694 (dimerizing coiled-coil); also called chimeric NuMA construct; source: E. coli BL21 Rosetta, purified (Ni HiTrap chelating, PreScission cleavage, Resource-Q, Superose-6)
Q: Which “stoichiometry N” value [2] does the source give for B2 here?
A: Its value is 2.

Q: What about the stoichiometry N [3] of the same binder?
A: Its stoichiometry N is 1.

B3: NuMA^1861–1928 (domain or fragment)
chain: GSPDYGNSALLSLPGYRPTTRSSARRSQAGVSSGAPPGRNSFYMGTCQDEPEQLDDWNRIAELQQRNR
Q: B3 was tested. Which stoichiometry N [4] did it give?
A: The stoichiometry N was 1.

Q: And the stoichiometry N [5]?
A: The stoichiometry N was 1.

Q: What about the stoichiometry N [6] of the same binder?
A: Its stoichiometry N is 1.

Q: NSFYMGTCQDEPEQLDDWNRIAELQQRNR [NuMA^1900–1928] was tested. Which stoichiometry N [7] did it give?
A: Its stoichiometry N is 1.

B4: NuMA^1592–1694 (domain or fragment, human, UniProt Q14980 1592-1694, looked up)
chain: QLNELQAQLSQKEQAAEHYKLQMEKAKTHYDAKKQQNQELQEQLRSLEQLQKENKELRAEAERLGHELQQAGLKTKEAEQTCRHLTAQVRSLEAQVAHADQQL
notes: NuMA, human, residues 1592-1694 (C-terminal portion of the coiled coil); also called C-terminal part of the NuMA coiled-coil
Q: B4 was tested. Which “stoichiometry N” value [2] did it give?
A: Its value is 2.
